Literature values in paper PMC4316816.

Target: ANP (UniProt P01160)
UniProt P01160, sequence (P01160 124-151): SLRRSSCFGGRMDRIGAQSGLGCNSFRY

**Q.** With GC-A/NPRA (from UniProt P16066) as the substance, how does the Kd read?
**A.** 24 nM
